Three molecules from patent publication US20240409663A1 (CONCEPT TO MEDICINE BIOTECH, published 2024) can be followed below.

Changes are numbered by the printed parent chain.

As a reminder, the EC50 is the concentration at which the effect is half-maximal. Read a low EC50 as a more potent agent. One may read the Kd as the free concentration of one partner at which half of the binding sites on the other are occupied at equilibrium, for simple one-to-one binding. A word on the koff: it is the first-order rate constant of dissociation. Read a low koff as a long-lived complex. Usually kon stands for the second-order rate constant of association.

Assay [1] has as its target T1, human GPC3 on cells (human, UniProt P51654 25-554). Nature of the assay: cell-based or functional assay.
The target of assay [2] is T1, human GPC3 on cells. The assay can be described thus: FACS, HEPG2 cells. The protocol: (§1) To evaluate the antigen binding property, the humanized antibodies were analyzed for their binding to human GPC3 over-expressed CHOK1 cells, HEPG2 cells, Hep3B cells and Huh-7 cells by FACS. Briefly, GPC3-CHOK1 cells, HEPG2 cells, Hep3B cells and Huh-7 cells were firstly incubated with Fc blocking reagent at 4° C. for 15 mins. Cells were washed by FACS buffer and divided to each well with 4-fold serially diluted humanized antibodies starting at 10 μg/mL at 4° C. for 60 mins. Cells were washed by FACS buffer and fixed with 2% PFA at RT for 15 mins. […] The 16 humanized antibodies were separated into two plates.
In general terms: Flow cytometry measures light scatter and fluorescence of single cells or particles in a stream.

For assay [3], the target named is T1, human GPC3 on cells. Nature of the assay: FACS, Huh-7 cells. How it is done: as §1
For assay [4], the target named is T2, human GPC3-his tag protein (human, UniProt P51654 25-559, limits assumed).
T2 construct: recombinant soluble antigen used as analyte in all Biacore runs; also called recombinant GPC3 protein; rhGPC3-His; not shown: His tag
The assay can be described thus: SPR Biacore, mAb captured on CM5, GPC3-his dilution series (full kinetics). How it is done: The binding of the humanized antibodies to recombinant GPC3 protein (human GPC3-his tag) was tested by Biacore using a capture method. 52H5D3B8-6 #-V+VL, 52H5D3B8-6 #-VH1+VL1, 52H5D3B8-6 #-VH1+VL3, 52H5D3B8-6 #-V1+VL4, 52H5D3B8-6 #-VH2+VL4, 52H5D3B8-6 #-VH3+VL1, 52H5D3B8-6 #-VH3+VL3 mAbs were captured using CM5 sensor chip. A serial dilution of human GPC3-his tag protein was injected over captured antibody for 2 mins at a flow rate of […]. The antigen was allowed to dissociate for 360 s. All the experiments were carried out on a Biacore T200.

In assay [5] the target is T1, human GPC3 on cells. Nature of the assay: FACS, GPC3-CHOK1 cells. An excerpt:
(§2) FACS was used to evaluate the binding activity of 52H5D3B8-6 #-VH1+VL1 and 52H5D3B8-6 #-VH2+VL3 with comparison to GC33 (Chugai Pharmaceutical) and Y035 (Carsgen Therapeutics, U.S. Patent Application US20190046659) on human GPC3 over-expressed CHOK1 cells and HEPG2 cells.

Assay [6] addresses T1, human GPC3 on cells. The assay can be described thus: FACS, Hep3B cells. How it is done:
as §1

Assay [7] addresses T1, human GPC3 on cells. The assay can be described thus: FACS, HEPG2 cells.
From the text: as §2
The source holds these as a separate data set.

Assay [8] deals with T2, human GPC3-his tag protein. Nature of the assay: SPR Biacore 8K, mAb captured, affinity ranking. The protocol: To evaluate antigen binding activity, the chimeric antibody's affinity was measured by Biacore 8K. A serial dilution of human GPC3-his tag protein was injected over captured chimeric antibody 52H5D3B8-6 #-VH+VL for 3 mins at a flow rate of 30 μl/min. The antigen was allowed to dissociate for 720 s. Among the multi detection doses, two concentrations with most close affinity to the chimeric antibody's affinity were chosen for the 16 humanized antibodies' affinity detection.
In general terms: SPR reads the build-up and loss of mass on a sensor chip optically.

For assay [9], the target named is T1, human GPC3 on cells. The assay can be described thus: cell-based or functional assay. The source holds these as a separate data set.
Assay [10] has as its target T1, human GPC3 on cells. Nature of the assay: FACS, GPC3-CHOK1 cells. The protocol: as §1
The source holds these as a separate data set.

Assay [11] addresses T1, human GPC3 on cells. Nature of the assay: FACS, GPC3-CHOK1 cells. How it is done: To evaluate the antigen binding property, the affinity maturated antibodies were analyzed for their binding to human GPC3 over-expressed CHOK1 cells by FACS as previously described.
The source holds these as a separate data set.

Assay [12] has as its target T1, human GPC3 on cells. The assay can be described thus: FACS, Hep3B cells. How it is done:
as §1
This is another data set of the same source.

Assay [13] concerns the target T1, human GPC3 on cells. Nature of the assay: FACS, GPC3-CHOK1 cells. The protocol: as §1
The source holds these as a separate data set.

Assay [14] concerns the target T1, human GPC3 on cells. Nature of the assay: FACS, Huh-7 cells. How it is done:
as §1
The source holds these as a separate data set.

Assay [15] addresses T1, human GPC3 on cells. The assay can be described thus: FACS, GPC3-CHOK1 cells. How it is done:
(§3) Cell-based binding: FACS was used to evaluate the binding activity of 52H5D3B8, 52H5D3B8-6 # chimeric mAbs and GC33 antibody on human GPC3 over-expressed CHOK1 cells, Hep3B cells and Huh-7 cells.
(§4) Briefly, GPC3-CHOK1 cells, Hep3B cells or Huh-7 cells were firstly incubated with Fc blocking reagent at 4° C. for 15 mins. Cells were washed by FACS buffer and divided to each well with 3-fold serially diluted 52H5D3B8, 52H5D3B8-6 # chimeric mAbs or GC33 antibody starting at 30 μg/mL at 4° C. for 60 mins. Cells were washed by FACS buffer and fixed with 2% PFA at RT for 15 mins. […] Samples were washed twice with FACS buffer.
The source holds these as a separate data set.

In assay [16] the target is T2, human GPC3-his tag protein. The assay can be described thus: SPR Biacore 8K, mAb captured, one or two doses GPC3-his. The protocol: The binding of the optimized antibodies of 52H5D3B8 mAb to human GPC3-his was tested with Biacore using a capture method. A single dose or two doses of human GPC3-his tag protein was injected over captured antibody. All the experiments were carried out on a Biacore 8K. Data analysis was carried out using Biacore 8K evaluation software.

For assay [17], the target named is T1, human GPC3 on cells. The assay can be described thus: FACS, GPC3-CHOK1 cells. The protocol: Briefly, GPC3-CHOK1 cells were firstly incubated with Fc blocking reagent at 4° C. for 15 mins. Cells were washed by FACS buffer and divided to each well with 3-fold serially diluted 52H5D3B8, 52H5D3B8-1 #, 52H5D3B8-2 #, 52H5D3B8-3 #, 52H5D3B8-4 #, 52H5D3B8-5 #, 52H5D3B8-6 #, 52H5D3B8-7 #, 52H5D3B8-8 #, 52H5D3B8-9 #, 52H5D3B8-10 #, 52H5D3B8-11 #, 52H5D3B8-12 #, 52H5D3B8-13 #, 52H5D3B8-14 # and 52H5D3B8-15# chimeric mAbs starting at 30 μg/mL at 4° C. for 60 mins. Cells were washed by FACS buffer and fixed with 2% PFA at RT for 15 mins. […] Samples were washed twice with FACS buffer.
The source holds these as a separate data set.

Assay [18] has as its target T1, human GPC3 on cells. The assay can be described thus: FACS, Huh-7 cells. How it is done: as §3, §4
The source holds these as a separate data set.

For assay [19], the target named is T1, human GPC3 on cells. The assay can be described thus: FACS, Hep3B cells. The protocol: as §3, §4
This is another data set of the same source.

The target of assay [20] is T1, human GPC3 on cells. Nature of the assay: FACS, HEPG2 cells. How it is done:
as §1
This is another data set of the same source.

B1: 52H5D3B8-6#-VH1+VL1 (antibody, V domains shown)
VH: QVQLVQSGAEVKKPGASVKVSCKASGYTFTDYEMHWVRQAPGQGLEWMGAIHPGSGGTAYNQKFKGRVTMTRDTSTSTVYMELSSLRSEDTAVYYCARYYSYAYWGQGTLVTVSS
VL: DIVMTQTPLSLSVTPGQPASISCRSSQSLVHSNGNTYLQWYLQKPGQSPQLLIYKVSNRFSGVPDRFSGSGSGTDFTLKISRVEAEDVGVYYCFQSIHVPYTFGGGTKLEIK
notes: humanized
On to B1, for which, in assay [1], the “EC50 of ADCC signaling (Jurkat-hCD16a-NFAT luciferase reporter), HEPG2 cells” value was 0.176 nM. Moreover, the “EC50 of ADCC signaling (Jurkat-hCD16a-NFAT luciferase reporter), Huh-7 cells” value in [1] came to 0.322 nM. Further, the concentration giving a half-maximal response (EC50) in assay [2] was determined as 0.0411 µg/mL; in [3], 0.0362 µg/mL; in assay [5], 0.332 nM; in assay [6], 0.0626 µg/mL; in [7], 0.342 nM; in [10] it was 0.038 µg/mL. For the same molecule, the values for the Kd in [4] and in [8] were 2.24 nM and 1.97 nM, respectively. The koff was 0.00111 s⁻¹ in assay [4] and 0.00112 s⁻¹ in assay [8]. Besides, the on-rate (kon) turned out to be 497000 M⁻¹ s⁻¹ in [4] and 567000 M⁻¹ s⁻¹ in [8]. Also, in assay [9], the “EC50 of ADCC cytotoxicity (primary NK cells, LDH), HEPG2 cells” value came out at 0.0845 nM. Further, the “EC50 of ADCC cytotoxicity (primary NK cells, LDH), Huh-7 cells” value in assay [9] was 0.108 nM.

B2: 52H5D3B8-6#-VH2+VL3 (antibody, V domains shown)
VH: B1 VH with M48I, R72A, A97T
VL: B1 VL with Q50K
notes: humanized
On to B2, for which the “EC50 of ADCC signaling (Jurkat-hCD16a-NFAT luciferase reporter), HEPG2 cells” value in assay [1] was found to be 0.174 nM. Further, the “EC50 of ADCC signaling (Jurkat-hCD16a-NFAT luciferase reporter), Huh-7 cells” value in assay [1] was 0.265 nM. For the same molecule, the EC50 in [2] worked out at 0.0438 µg/mL; in assay [3], 0.0384 µg/mL; in assay [11] it was 0.412 nM; in assay [5], 0.344 nM; in assay [6], 0.0705 µg/mL; in assay [7], 0.354 nM. The concentration for a half-maximal effect (EC50) in assay [10] was 0.0411 µg/mL. Moreover, in assay [8], the Kd worked out at 0.962 nM. Moreover, the off-rate constant (koff) in assay [8] stood at 0.000642 s⁻¹. Further, in assay [8], the on-rate constant (kon) worked out at 668000 M⁻¹ s⁻¹. Further, the “EC50 of ADCC cytotoxicity (primary NK cells, LDH), HEPG2 cells” value in assay [9] was determined as 0.104 nM. In [9], the “EC50 of ADCC cytotoxicity (primary NK cells, LDH), Huh-7 cells” value was determined as 0.106 nM.

B3: 52H5D3B8-6# chimeric mAb (antibody, V domains shown)
VH: QVQLQQSGAELVRPGASVKLSCKALGYTFTDYEMHWVKQTPVHGLEWIGAIHPGSGGTAYNQKFKGKATLTADKFSSTGYMELSSLTSEDSAVYYCTRYYSYAYWGQGTLVTVSA
VL: B1 VL with I2V, S12P, T14S, P15L, Q17D, P18Q, Q50K, T77I, V88L, Y92F
notes: CDR3 mutant of the 52H5D3B8 chimeric mAb (human IgG1); also called 52H5D3B8-6#-VH+VL
On to B3, for which the half-maximal effective concentration (EC50) in [12] was found to be 0.0664 µg/mL; in [13], 0.0389 µg/mL; in assay [14], 0.0378 µg/mL; in assay [2], 0.0452 µg/mL; in assay [15], 0.0474 µg/mL; in assay [3], 0.0347 µg/mL. In addition, the half-maximal effective concentration (EC50) in [17] stood at 0.0601 µg/mL; in assay [18], 0.0501 µg/mL; in assay [6], 0.0643 µg/mL; in assay [19] it was 0.0982 µg/mL; in assay [20], 0.0469 µg/mL; in assay [10], 0.035 µg/mL. Moreover, the Kd turned out to be 0.368 nM in assay [16], 0.446 nM in assay [4] and 0.425 nM in assay [8]. Besides, the values for the koff in assay [16], in assay [4] and in [8] were 0.000289 s⁻¹, 0.000265 s⁻¹ and 0.000307 s⁻¹, respectively. Further, the kon in [16] came out at 785000 M⁻¹ s⁻¹; in assay [4], 595000 M⁻¹ s⁻¹; in assay [8], 721000 M⁻¹ s⁻¹.
